How the values were obtained:
von Willebrand factor = biological target: T1, von Willebrand factor (human, UniProt P04275 764-2813); assay: inhibition ELISA: ristocetin-induced binding of plasma vWF to fixed human platelets (glycoprotein Ib), bound vWF detected with anti-VWF-HRP
T1 construct: vWF of the human plasma in which the compounds were diluted; multimeric; also called vWF; VWF

human serum albumin = biological target: T2, human serum albumin (human, UniProt P02768 25-609); assay: SPR, BIAcore 3000, HSA on CM5 chip
T2 construct: also called HSA
Method: (§1) For this purpose, binding to HSA and CSA was assessed in BIAcore™ 3000, by injecting concentration series of the fusion proteins ranging from 2 μM to 200 nM on a CM5 chip coated with ˜3000 RU HSA or CSA. Coating of the chip (CM5) was performed by amine coupling using NHS/EDC for activation and ethanolamine for deactivation (Biacore amine coupling kit). HBS-EP was used as flow buffer at a rate of […]. 90 μl of sample was injected for 120 s.

[1] = biological target: T3, cynomolgus monkey serum albumin (cynomolgus monkey, UniProt A2V9Z4 25-608); assay: SPR, BIAcore 3000, CSA on CM5 chip
T3 construct: amine-coupled to a CM5 chip; also called CSA; cynoSA
T3 sequence (A2V9Z4 25-608 limits assumed): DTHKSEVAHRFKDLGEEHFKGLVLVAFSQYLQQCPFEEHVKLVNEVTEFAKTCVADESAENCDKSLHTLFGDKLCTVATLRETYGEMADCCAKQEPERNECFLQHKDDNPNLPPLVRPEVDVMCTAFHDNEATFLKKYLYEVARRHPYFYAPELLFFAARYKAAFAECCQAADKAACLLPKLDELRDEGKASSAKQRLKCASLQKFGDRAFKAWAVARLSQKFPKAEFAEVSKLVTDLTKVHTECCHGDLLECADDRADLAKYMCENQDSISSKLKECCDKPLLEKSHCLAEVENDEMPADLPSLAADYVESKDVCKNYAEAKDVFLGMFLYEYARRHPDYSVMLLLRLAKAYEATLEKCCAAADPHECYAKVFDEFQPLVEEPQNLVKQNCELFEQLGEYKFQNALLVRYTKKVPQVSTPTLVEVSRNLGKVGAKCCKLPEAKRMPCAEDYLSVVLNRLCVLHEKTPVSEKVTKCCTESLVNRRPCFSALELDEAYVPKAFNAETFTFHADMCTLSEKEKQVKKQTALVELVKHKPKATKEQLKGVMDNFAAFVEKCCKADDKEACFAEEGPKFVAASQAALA
Method: as §1

Binder | binding result (von Willebrand factor) | IC50 (read off the curve) (von Willebrand factor) [nM] | Kd (human serum albumin) [nM] | koff (human serum albumin) [s⁻¹] | kon (human serum albumin) [M⁻¹ s⁻¹] | Kd [1] [nM] | kon [1] [M⁻¹ s⁻¹]
2D3-9GS-56E4-MycHis (other) EVQLVESGGSLVQPGGSLRLSCAASGFTFDDYAMSWVRQVPGKGLEWVSSINWSGTHTDYADSVKGRFTISRNNANNTLYLQMNSLKSEDTAVYYCAKNWRDAGTTWFEKSGSAGQGTQVTVSSGGGGSGGGSAAARYWDYDVFGGGTPVGGAAAEQKLISEEDLNGAAHHHHHH |  |  | 991 | 0.00497 | 5020 | 2110 | 4010
2D3-9GS-59F2-MycHis (other) EVQLVESGGSLVQPGGSLRLSCAASGFTFDDYAMSWVRQVPGKGLEWVSSINWSGTHTDYADSVKGRFTISRNNANNTLYLQMNSLKSEDTAVYYCAKNWRDAGTTWFEKSGSAGQGTQVTVSSGGGGSGGGSAAARYWDFDVFGGGTPVGGAAAEQKLISEEDLNGAAHHHHHH |  |  | 571 | 0.00351 | 6140 | 1040 | 4850
2D3-9GS-59C2-MycHis (other) EVQLVESGGSLVQPGGSLRLSCAASGFTFDDYAMSWVRQVPGKGLEWVSSINWSGTHTDYADSVKGRFTISRNNANNTLYLQMNSLKSEDTAVYYCAKNWRDAGTTWFEKSGSAGQGTQVTVSSGGGGSGGGSAAARDWDFDVFGGGTPVGGAAAEQKLISEEDLNGAAHHHHHH |  |  | 481 | 0.00179 | 3730 | 775 | 2750

Continued, values first:

binding result (von Willebrand factor) | IC50 (read off the curve) (von Willebrand factor) [nM] | Kd (human serum albumin) [nM] | koff (human serum albumin) [s⁻¹] | kon (human serum albumin) [M⁻¹ s⁻¹] | Kd [1] [nM] | kon [1] [M⁻¹ s⁻¹] | Binder
binds |  |  |  |  |  |  | vWF0054 (VHH, also called 12A2 sv1-9GS-59C2-9GS-59C2-9GS-12A2 sv1) single chain fusion protein: DVQLVESGGGLVQPGGSLRLSCAASGRTFSYNPMGWFRQAPGKGRELVAAISRTGGSTYYPESVEGRFTISRDNAKRTVYLQMNSLRAEDTAVYYCAAAGVRAEQGRVRTLPSEYTFWGQGTQVTVSSGGGGSGGGSRDWDFDVFGGGTPVGGGGGGSGGGSRDWDFDVFGGGTPVGGGGGGSGGGSEVQLVESGGGLVQPGGSLRLSCAASGRTFSYNPMGWFRQAPGKGRELVAAISRTGGSTYYPESVEGRFTISRDNAKRTVYLQMNSLRAEDTAVYYCAAAGVRAEQGRVRTLPSEYTFWGQGTQVTVSS
 | ~10 |  |  |  |  |  | 12A2_sv1-AAA-12A2_sv1 (VHH, also called vWF-001; vWF-0001) DVQLVESGGGLVQPGGSLRLSCAASGRTFSYNPMGWFRQAPGKGRELVAAISRTGGSTYYPESVEGRFTISRDNAKRTVYLQMNSLRAEDTAVYYCAAAGVRAEQGRVRTLPSEYTFWGQGTQVTVSSAAAEVQLVESGGGLVQPGGSLRLSCAASGRTFSYNPMGWFRQAPGKGRELVAAISRTGGSTYYPESVEGRFTISRDNAKRTVYLQMNSLRAEDTAVYYCAAAGVRAEQGRVRTLPSEYTFWGQGTQVTVSS
 |  | 663 | 0.00304 | 4590 | 1280 | 3450 | 2D3-9GS-59H12-MycHis (other) EVQLVESGGSLVQPGGSLRLSCAASGFTFDDYAMSWVRQVPGKGLEWVSSINWSGTHTDYADSVKGRFTISRNNANNTLYLQMNSLKSEDTAVYYCAKNWRDAGTTWFEKSGSAGQGTQVTVSSGGGGSGGGSAAARSWDFDVFGGGTPVGGAAAEQKLISEEDLNGAAHHHHHH
binds |  |  |  |  |  |  | 12A2 sv1-9GS-59C2-9GS-12A2 sv1 (VHH, also called vWF-0053; vWF 0053) DVQLVESGGGLVQPGGSLRLSCAASGRTFSYNPMGWFRQAPGKGRELVAAISRTGGSTYYPESVEGRFTISRDNAKRTVYLQMNSLRAEDTAVYYCAAAGVRAEQGRVRTLPSEYTFWGQGTQVTVSSGGGGSGGGSRDWDFDVFGGGTPVGGGGGGSGGGSEVQLVESGGGLVQPGGSLRLSCAASGRTFSYNPMGWFRQAPGKGRELVAAISRTGGSTYYPESVEGRFTISRDNAKRTVYLQMNSLRAEDTAVYYCAAAGVRAEQGRVRTLPSEYTFWGQGTQVTVSS
